The results in this text go back to article PMC5982450.

Experiment [1] addresses C5a receptor (C5aR) (human (endogenous in neutrophils)) (UniProt P21730).
For experiment [2], the target named is formylated peptide receptors (FPR) (human (endogenous in neutrophils)) (UniProt P21462).
For experiment [3] the target is unchanged. The source holds these as a separate data set.

UniProt P21730, sequence (P21730 whole entry): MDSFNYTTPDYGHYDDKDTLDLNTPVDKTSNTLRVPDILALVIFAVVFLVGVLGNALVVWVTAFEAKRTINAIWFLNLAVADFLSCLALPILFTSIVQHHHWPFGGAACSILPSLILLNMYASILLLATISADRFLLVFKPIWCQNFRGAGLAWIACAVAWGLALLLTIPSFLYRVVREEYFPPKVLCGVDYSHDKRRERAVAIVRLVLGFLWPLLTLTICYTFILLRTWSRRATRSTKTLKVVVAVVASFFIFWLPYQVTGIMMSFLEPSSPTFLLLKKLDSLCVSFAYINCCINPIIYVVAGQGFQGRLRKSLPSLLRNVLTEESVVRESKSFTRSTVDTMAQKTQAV
UniProt P21462, sequence (P21462 whole entry): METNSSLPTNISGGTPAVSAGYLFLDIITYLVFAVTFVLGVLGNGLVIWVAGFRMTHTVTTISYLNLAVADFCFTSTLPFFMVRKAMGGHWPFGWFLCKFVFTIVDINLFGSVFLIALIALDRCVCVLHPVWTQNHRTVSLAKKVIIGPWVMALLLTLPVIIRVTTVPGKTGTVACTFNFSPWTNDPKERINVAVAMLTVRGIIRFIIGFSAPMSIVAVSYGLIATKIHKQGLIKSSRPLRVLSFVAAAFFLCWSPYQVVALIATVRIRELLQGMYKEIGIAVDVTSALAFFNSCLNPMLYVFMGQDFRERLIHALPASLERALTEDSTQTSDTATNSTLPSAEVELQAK

“CHIPSΔ1F, a CHIPS mutant lacking the first N-terminal amino acid (domain or fragment)” showed a neutrophil chemotaxis towards human fracture hematoma serum in a 3D fibrin gel, mean vector speed without vs with CHIPSΔ1F (10 μg/ml); value is the speed with CHIPSΔ1F in experiment [1] of 4 μm/min.

On to “chemotaxis inhibitory protein of Staphylococcus aureus (CHIPS) (from UniProt A6QIG7 29-149) (natural protein)”, for which the neutrophil chemotaxis towards human fracture hematoma serum in a 3D fibrin gel, mean vector speed without vs with CHIPS (10 μg/ml); value is the speed with CHIPS in experiment [1] and in experiment [2] was 3.3 μm/min throughout. The substance also registered a neutrophil chemotaxis towards fMLF (10^-7 M) in a 3D fibrin gel, mean vector speed without vs with CHIPS (10 μg/ml); value is the speed with CHIPS in experiment [3] of 0.4 μm/min.
